Assay results published in the RNAGym collection of RNA variant scans (doi:10.1073/pnas.2313332121).
This sample holds only a part of the variants without activity.

B1: TPR 5TU (parent)
chain: GGAUCUUCUCGAUCUAACAAAAAAGACAAAUCUGCCACAAAGCUUGAGAGCAUCUUCGGAUGCAGAGGCGGCAGCCUUCGGUGGCGCGAUAGCGCCAACGUUCUCAACUAUGACACGCAAAACGCGUGCUCCGUUGAAUGGAGUUUAUCAUG

Variants of: B1
Assay: polymerase ribozyme fitness, log enrichment relative to wild type (log ratio); higher = more active; in vitro selection for triplet polymerase activity
In short: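 Frozen incubation at −7 °C formed the core of a single, triplicate in vitro selection round applied to PCR-built, transcribed mutant libraries of each subunit of a heterodimeric triplet polymerase ribozyme. Extended constructs were gel-excised, captured with streptavidin beads and amplified by RT-PCR, and input and output libraries were Illumina-sequenced with a filter of ≥10 input reads and ≥1 read per output. Fitness is the logarithm of genotype enrichment relative to wild-type enrichment, with inverse-variance-weighted replicate averaging, and the logarithm is base 2.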

First: C35U C85G
Second: A37U C57G U61A G71U A91G U139G
The “polymerase ribozyme fitness (log ratio)” value of the first is higher: -2.73 for the first, ≤ -4.2 for the second.

Compared with C38U C57U C93A A142U, C35U C93G G126A C131U U139A is lower in “polymerase ribozyme fitness (log ratio)” value: -3.5 for the first, -4.11 for the second.

Compared with C36U A49C C95A U145C, C35U G50U C93G is higher in “polymerase ribozyme fitness (log ratio)” value: ≤ -4.2 for the first, -3.56 for the second.

C36A C57A C79A G83U C93G C114U and C36A A91U U145C cannot be ordered by “polymerase ribozyme fitness (log ratio)” value: ≤ -4.2 for the first, ≤ -4.2 for the second.

First: A37G U56A G124C U134A U144A
Second: C36U U61A C96G G133A
The “polymerase ribozyme fitness (log ratio)” value of the first is lower: ≤ -4.2 for the first, -3.93 for the second.

Compared with C36U G48U C96G C103G A121C, A37C C118U A121G is higher in “polymerase ribozyme fitness (log ratio)” value: -2.74 for the first, 0.0889 for the second.

First: A37U G59A
Second: A37G C57U G71U G92C C96U A97C A150C U151A
The “polymerase ribozyme fitness (log ratio)” value of the first is higher: -0.836 for the first, ≤ -4.2 for the second.

Compared with A37C C95G U134G, C35U G58U C87U C114A A119C is lower in “polymerase ribozyme fitness (log ratio)” value: -3.26 for the first, -4 for the second.

First: C36A C75A C79U A115U A120C C125U
Second: C36G
The “polymerase ribozyme fitness (log ratio)” value of the first is lower: ≤ -4.2 for the first, -3.16 for the second.

Going from C36A to C36U, the “polymerase ribozyme fitness (log ratio)” value rises from -2.97 to -0.919.

Compared with C38G G50A G58C A60G U145G, C36A C116A is higher in “polymerase ribozyme fitness (log ratio)” value: ≤ -4.2 for the first, -3.76 for the second.

A37C A60U C63U G86U A98G and C35U A64U C116A G140C are within 0.2 log units of each other in “polymerase ribozyme fitness (log ratio)” value: -3.99 for the first, -3.97 for the second.

Compared with A37U G81A U101C U111A U148G, C38A C95G is higher in “polymerase ribozyme fitness (log ratio)” value: ≤ -4.2 for the first, -1.41 for the second.

Compared with C38A C95U, A37C A52G G84C U130A G143C is lower in “polymerase ribozyme fitness (log ratio)” value: -0.419 for the first, ≤ -4.2 for the second.

C36A U55A G124A G141U and C36U U56G U61A cannot be ordered by “polymerase ribozyme fitness (log ratio)” value: ≤ -4.2 for the first, ≤ -4.2 for the second.

First: C36A C85A C118U
Second: A37G C76U G80U C105U A122U
The “polymerase ribozyme fitness (log ratio)” value of the first is higher: -3.82 for the first, ≤ -4.2 for the second.

C36G U45G C54U A89U G94U C125G G126A and A37C G42U G58A C96A G117U U146A cannot be ordered by “polymerase ribozyme fitness (log ratio)” value: ≤ -4.2 for the first, ≤ -4.2 for the second.

First: C36G A66U G68C
Second: C35U C105G G126A
The “polymerase ribozyme fitness (log ratio)” value of the first is lower: ≤ -4.2 for the first, -2.32 for the second.

First: A37C G84U
Second: A37G A52G C54A
The “polymerase ribozyme fitness (log ratio)” value of the first is higher: -2.07 for the first, -2.77 for the second.

Going from C36U G141C to A37C C99U C118U G143A U144A, the “polymerase ribozyme fitness (log ratio)” value falls from -2.17 to -3.39.

First: C38U A52C U55G U56A A120C A121C
Second: C36A U82C C93U U135G
The “polymerase ribozyme fitness (log ratio)” value of the first is higher: -2.04 for the first, ≤ -4.2 for the second.

Compared with C36U A97U U130C, C38G C85G is lower in “polymerase ribozyme fitness (log ratio)” value: -1.25 for the first, -2.66 for the second.

Compared with A37U A64G A73G G133U, A37U C72A G126C is lower in “polymerase ribozyme fitness (log ratio)” value: -4.19 for the first, ≤ -4.2 for the second.

First: C35U A97U
Second: C35U G83C
The “polymerase ribozyme fitness (log ratio)” value of the first is lower: -2.26 for the first, -1.43 for the second.

A37U A39U A49C G50C G84A A98C G143U and C38A U45A C57A C87G U90G A107U cannot be ordered by “polymerase ribozyme fitness (log ratio)” value: ≤ -4.2 for the first, ≤ -4.2 for the second.

A37U C75G C87G C93U U101C and C35U U45G G58A U61G C76U C85A C93G U104A A107C G152A cannot be ordered by “polymerase ribozyme fitness (log ratio)” value: ≤ -4.2 for the first, ≤ -4.2 for the second.

Compared with C38A A89U C93A G128A, C36U U144C is higher in “polymerase ribozyme fitness (log ratio)” value: ≤ -4.2 for the first, -1.23 for the second.

Compared with C35U G70A G83A C116G A120C U134A, C36U U55A C93U U144G is higher in “polymerase ribozyme fitness (log ratio)” value: ≤ -4.2 for the first, -1.07 for the second.

First: C36A C43G
Second: C38U C57U A106U U146G
The “polymerase ribozyme fitness (log ratio)” value of the first is lower: ≤ -4.2 for the first, -2.36 for the second.

A37C G84U U127G G128A U134G and A37U A49C A73U C75G A106C cannot be ordered by “polymerase ribozyme fitness (log ratio)” value: ≤ -4.2 for the first, ≤ -4.2 for the second.

First: C35U A60C A98U A142G
Second: C36A A37C C43A U61A C85G
The “polymerase ribozyme fitness (log ratio)” value of the first is higher: -2.28 for the first, ≤ -4.2 for the second.

Compared with C38G A41U C93G A110C, C38U C54A U82C U134G is higher in “polymerase ribozyme fitness (log ratio)” value: ≤ -4.2 for the first, -3.4 for the second.

Compared with C38U A73G G86A A91U A97G A115C, A37G A47C G83U is higher in “polymerase ribozyme fitness (log ratio)” value: ≤ -4.2 for the first, -4.12 for the second.

A37U A39G A40U C93U C105G A110U A138U and A37U G65A A66U U77G G84A cannot be ordered by “polymerase ribozyme fitness (log ratio)” value: ≤ -4.2 for the first, ≤ -4.2 for the second.

C36G C95A C103U U134A A138C and C35U C57G G65U U144C cannot be ordered by “polymerase ribozyme fitness (log ratio)” value: ≤ -4.2 for the first, -4.2 for the second.

Compared with C35U G81C U109G C116U, C36U U56A C79G U90G A106G C125U is lower in “polymerase ribozyme fitness (log ratio)” value: -3.18 for the first, ≤ -4.2 for the second.

Compared with A37G C114U, C36G A52C C95U U148A A150U is lower in “polymerase ribozyme fitness (log ratio)” value: -2.87 for the first, ≤ -4.2 for the second.

First: C38U C63U
Second: A37G U56G
The “polymerase ribozyme fitness (log ratio)” value of the first is higher: 0.178 for the first, -1.45 for the second.

First: C38A C57A G83A
Second: C38A U146G
The “polymerase ribozyme fitness (log ratio)” value of the first is higher: -0.895 for the first, -1.37 for the second.

C35U C114U U139A and C35U A39U G50A C51U G83A C123U cannot be ordered by “polymerase ribozyme fitness (log ratio)” value: ≤ -4.2 for the first, ≤ -4.2 for the second.

C36U G65C U102G G140C C149G and C35G U55C G68U A91G G126A cannot be ordered by “polymerase ribozyme fitness (log ratio)” value: ≤ -4.2 for the first, ≤ -4.2 for the second.

With C38A A41C U61A G94A C131A G141A U144G U151A the “polymerase ribozyme fitness (log ratio)” value was ≤ -4.2.
